These results are taken from patent US20140045930A1, “ASSAY FOR ARGINYL HYDROXYLASE ACTIVITY” (priority 2011, published 2014).

The first test has as its target T1, YcfD (Escherichia coli, UniProt P27431).
T1 construct: hexa-His (N); made in house; host or cells: E. coli BL21 (DE3), pET28a
T1 sequence (P27431 1-373): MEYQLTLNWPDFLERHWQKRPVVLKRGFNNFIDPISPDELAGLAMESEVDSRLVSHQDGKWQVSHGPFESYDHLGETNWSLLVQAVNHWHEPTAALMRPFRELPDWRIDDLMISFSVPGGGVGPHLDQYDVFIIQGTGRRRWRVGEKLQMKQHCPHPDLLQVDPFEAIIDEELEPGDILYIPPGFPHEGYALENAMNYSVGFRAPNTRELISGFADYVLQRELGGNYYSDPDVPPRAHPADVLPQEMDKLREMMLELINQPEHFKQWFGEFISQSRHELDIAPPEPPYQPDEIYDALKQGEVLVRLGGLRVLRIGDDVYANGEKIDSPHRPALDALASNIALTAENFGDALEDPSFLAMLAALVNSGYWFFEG
Test: not given
It counts as biochemical.
Conditions: not given
As for `O=C(O)c1c[nH]c2c(ccc3cccnc32)c1=O` [FG0041], the “inhibition of YcfD argininyl hydroxylase activity” value (“inhibition” for short) was “inhibitory”.

With `O=C(O)CNC(=O)c1nc(Cl)c2ccccc2c1O` [FG2216], the “inhibition” value is reported as “inhibitory”.

As to `O=C(O)CNC(=O)C(=O)O` [N-oxalylglycine], the “inhibition” value is “inhibitory”. Still for that read-out and setting: the entry for `O=C(O)/C=C/C(=O)O` [fumarate] is “inhibitory”. The same measure, in the same setting: under `O=c1c(-c2ccc(O)cc2)coc2cc(O)cc(O)c12` [genistein] stands “inhibitory”; under `O=C(O)c1ccnc(C(=O)O)c1` [pyridine-2,4-dicarboxylic acid], “inhibitory”. With `O=C(O)c1ccc(C(=O)O)nc1` [pyridine-2,5-dicarboxylic acid], the “enhancement of YcfD activity” value is “Enhancers of YcfD activity”.

For the molecule `O=C(O)c1cccc(C(=O)O)n1` [pyridine-2,6-dicarboxylic acid], the “enhancement of YcfD activity” value is listed as “Enhancers of YcfD activity”. Turning to `O=C(O)CCC(=O)O` [succinate], the “inhibition” value is “inhibitory”.

Another test deals with T1, YcfD. The test can be described thus: Hydroxylation assay by MALDI-TOF MS (peptide substrates, +16 Da mass shift). It counts as biochemical. As to conditions: MS based assay; Fe(II) and 2OG dependent. As for the experimental part:
Assay mixtures (final volume 100 μL in 50 mM Tris-HCl, pH 7.5) contained: enzyme (10 μM), substrate (100 μM), 2OG (160 μM), Fe(II) (200 μM) and ascorbate (2 mM). The reaction mixture was incubated at 37° C. for 30 minutes. The reaction mixture was then placed on ice, 10 μl of 1% formic acid was added to quench the reaction, and the mixture was centrifuged to separate any insoluble material that precipitated during quenching. The resultant soluble mixture (1 μl) and α-cyano-4-hydroxycinnamic acid (CHCA) matrix solution (1 μl) (LaserBio Labs) were double spotted onto a 96 well MALDI sample plate, and when dry analysed using MALDI-TOF MS on a Waters Micromass™ MALDI micro MX™ mass spectrometer in negative ion reflectron mode.
(§1) Using a mass spectrometric (MS) based assay, we then screened YcfD with 21 known peptide fragments of substrates for three human 2OG dependent hydroxylases (PHD2, FIH, JMJD6), that encompasses known hydroxylation sites, including the HIF-1α N- and C-terminal oxygen dependent degradation domain (prolyl-hydroxylation), the HIF-1α C-terminal transcriptional activation domain (asparaginyl hydroxylation), ankyrin repeat domain peptides (asparaginyl hydroxylation), splicing regulatory protein fragments (lysyl5-hydroxylation), and collagen proyl-hyroxylase peptides. […] We then screened other available peptides including a set originally prepared for candidate hydroxylases from Pseudomonas spp., that are potential homologues of the human HIF prolyl-hydroxylases. […] MS-fragmentation analyses, unexpectedly, implied that the predicted hydroxylation occurred at the arginine-residue (Arg-12) at the -3position relative to the C-terminus of the substrate peptide (data not shown). This proposal was supported by ‘alanine scanning’ analyses hydroxylation was assessed for peptides in which substitution of alanine at every position in turn of RLLPAVSEATIRRL. […] We then employed NMR to investigate the regiochemistry of arginine-hydroxylation, employing an octameric peptide (AVSEATIR) containing a single arginine residue to simplify the analyses. This octameric peptide is set out in SEQ ID NO: 12. […] This contrasts with nitric oxide synthase which catalyses hydroxylation of L-arginine to give citrulline and nitric oxide via an Nω-hydroxyarginine intermediate.
Based on the identified peptide substrates for YcfD, we searched the E. coli genome for potential substrates and made a set of peptides. Screening for YcfD activity identified a number of further potential substrate sequences as observed by a +16Da mass shift on products. Examples of the peptide substrates are set out in the Table below.
For “RLLPAVSEATIRRL [14-residue synthetic peptide originally prepared for candidate hydroxylases from Pseudomonas spp; YcfD substrate]”, the “hydroxylation by YcfD (+16Da mass shift)” value was “gave a +16Da mass shift”.

The same test, now with this note: peptide substrate incubated with YcfD, +16Da mass shift on products.
“AQYPQEVITTVRG [synthetic peptide, protein origin PhoP]”: the “% hydroxylation (+16 Da)” value is given as 60%. As to “ATVAKCVEALKERFQASLRD [synthetic peptide, protein origin PheT]”, the “% hydroxylation (+16 Da)” value came out at 40%. As for “ELNREQKWQMMLSKSMRR [synthetic peptide, protein origin CaiF]”, the “% hydroxylation (+16 Da)” value turned out to be 40%.

For the molecule “KHVQALDLSMRFR [synthetic peptide, protein origin Nicotinate-nucleotide diphosphorylase]”, the “% hydroxylation (+16 Da)” value was 30%. With “KLLRLFFPLSLRV [synthetic peptide, protein origin PhoQ]”, the “% hydroxylation (+16 Da)” value was 60%.

As for “KTPLAVLQSTLRS [synthetic peptide, protein origin PhoQ]”, the “% hydroxylation (+16 Da)” value is recorded as 95%.

Take “KTPLAVLQSTLRSLR [synthetic peptide, protein origin PhoQ]”: the “% hydroxylation (+16 Da)” value was 40%. Still for that read-out and setting: under “KWQMMLSKSMRR [synthetic peptide, protein origin CaiF]” stands 30%; under “LAVLQSTLRSLRS [synthetic peptide, protein origin PhoQ]”, 60%.

As for “LLRLFFPLSLRV [synthetic peptide, protein origin PhoQ]”, the “% hydroxylation (+16 Da)” value turned out to be 50%. Take “LTELNREQKWQMMLSKSMRR [synthetic peptide, protein origin CaiF]”: the “% hydroxylation (+16 Da)” value worked out at 40%.

Regarding “LTHSLKTPLAVLQSTLRS [synthetic peptide, protein origin PhoQ]”, the “% hydroxylation (+16 Da)” value is on record as 90%. With “NTHRGMGYSLRGL [synthetic peptide, protein origin CreB]”, the “% hydroxylation (+16 Da)” value amounted to 30%. The same measure, in the same setting: under “VAKCVEALKERFQASLRD [synthetic peptide, protein origin PheT]” stands 50%; under “VEALKERFQASLRD [synthetic peptide, protein origin Phenylalanyl-tRNA synthetase]”, 40%.

A further test addresses T1, YcfD. The test can be described thus: NMR analyses of YcfD-catalysed hydroxylation. It counts as biochemical. As to conditions: 1H NMR analyses (data not shown).
Description: NMR-analyses used a Bruker AVIII 700 system equipped with an inverse TCI cryoprobe optimised for ^1H observation and running TOPSPIN 2 software. Chemical shifts are reported in ppm relative to D2O (δH 4.72); the deuterium signal was used as an internal lock signal and the HDO signal was reduced by presaturation where necessary.
as §1
With `N=C(N)NCCC[C@H](N)C(=O)O` [L-arginine], the “hydroxylation by YcfD observed by 1H NMR” value is “No hydroxylation”. Still for that read-out and setting: the entry for `CC(=O)N[C@@H](CCCNC(=N)N)C(=O)O` [N-α-acetyl-L-arginine] is “No hydroxylation”.

The same test, now with this note: 2D-NMR after incubation with YcfD and HPLC purification.
On to “AVSEATIR [octameric peptide containing a single arginine residue]”, for which the position of hydroxylation entry is listed as “at C-3 of the hydroxylated arginine-residue”.
